Experimental data reported in patent US20260042834A1, “ANTI-CORTICOTROPIN-RELEASING HORMONE ANTIBODIES AND POLYCYSTIC OVARY SYNDROME” (HBM ALPHA THERAPEUTICS, INC., priority 2022, published 2026).

Assays:
[1] = tested on: human CRHR2; test: CRH-induced luciferase reporter blocking assay, CHO-CRE-hCRHR2 cells; format: cell-based
Description: (§1) To create CHO-CRE-hCRHR1, -hCRHR2, -mCRHR1, and -mCRHR2 reporter cell lines, pcDNA3.1-hCRHR1, -hCRHR2, -mCRHR1, and -mCRHR2 were introduced into CHO-CRE cells established above by electroporation as described above. Selection antibiotics hygromycin at 500 μg/ml and G418 at 1,000 μg/ml were employed. Individual established stable cell lines were characterized by both CRH and forskolin stimulation.
Activated GPCR proteins increase production of the intracellular cAMP. CHO-CRE-human CRHR1 stable clone 11 was generated by introduction of pcDNA3.1-human CRHR1 under the selection of G418 and hygromycin. Human CRHR1 expression in CHO-CRE-hCRHR1 Clone 11 was confirmed by flow cytometry (data not shown). To further validate that the cell line was functional, CHO-CRE-hCRHR1 Clone 11 cells were treated with forskolin and CRH peptide. […] Subsequently CHO-CRE-hCRHR2 Clone 32, -mCRHR1 Clone 22, and -mCRHR2 Clone 8 cell lines were established using similar methodology and validated with CRH treatment (data not shown).
Blocking CRHR1 by small molecules or neutralization of CRH peptide can reduce luciferase expression if the CRH-CRHR1 system works in CHO-CRE-hCRHR1 cells. Antalarmin, a small molecule CRHR1 antagonist, blocked CRH-mediated luciferase expression in CHO-CRE-hCRHR1 Clone 11 (data not shown). Furthermore, sheep anti-CRH polyclonal antibody reduced CRH-mediated luciferase expression in these cells (data not shown). Likewise, sheep anti-CRH polyclonal antibody blocked CRH-mediated luciferase expression in CHO-CRE-hCRHR2, CHO-CRE-mCRHR1, and CHO-CRE-mCRHR2 cells (data not shown).
(§2) Cells were digested by trypsin-EDTA (Life technologies, Cat #:12604-013), centrifuged at 1,000 rpm for 5 min, resuspended in growth medium, counted using a cell counter, seeded at a concentration of 5,000 cells per 100 μl in 96-well flat plates, and incubated overnight. 50 μl of 4× serially diluted antibodies was added (8 points, 1/4 diluted by growth medium) to plates containing CHO-CRE-hCRHR1 cells, and 50 μl of 4×CRH (4× is 2 nM, final is 0.5 nM) was added. Similarly, 4×CRH (4× is 0.4 nM, final is 0.1 nM) was added to CHO-CRE-hCRHR2 cells and CHO-CRE-mCRHR1 cells, and 4×CRH (4× is 20 nM, final is 5 nM) was added to CHO-CRE-mCRHR2 cells. Next, plates were incubated 4-6 hours at 37° C. in a CO2 incubator. 60 μl of culture medium was removed, to which was added 60 μl of Bio-Glo luciferase, followed by incubation for 10 min at RT. Plates were read in a luciferase plate reader (EnVision, PerkinElmer).

[2] = tested on: mouse CRHR2; test: CRH-induced luciferase reporter blocking assay, CHO-CRE-mCRHR2 cells; format: cell-based
Description: as §1, with “stimulation. […]” for “stimulation.”
as §2

[3] = CHO-CRE-hCRHR2 cells, 0.1 nM CRH

B1: PR302029: humanized variant of Series 5 mAb PR301777; VH SEQ ID NO: 255, VL SEQ ID NO: 310 (antibody, V domains shown)
VH: EVQLVESGGGLVQPGGSLRLSCAASGFTFSNYWMNWVRQAPGKGLEWVGEIRLKSNNYATHYAESVKGRFTISRDDSKNSLYLQMNSLKTEDTAVYYCTVGTLVYWGQGTLVTVSS
VL: DIVLTQSPDSLAVSLGERATINCRASQSVSTSTYNYMHWFQQKPGQPPKLLIKFASNLESGVPDRFSGSGSGTDFTLTISSLQAEDTAVYYCQHSWEIPYTFGQGTKLEIK
modifications: PR302029 VH, PR302031 VH, PR302034 VH; PR302029 VL, PR302036 VL, PR302043 VL, PR302050 VL, PR302064 VL
- IC50 [1, 3]: 5.75 nM
- IC50 ([2]; CHO-CRE-mCRHR2 cells, 5 nM CRH): 8.08 nM

B2: PR302034: humanized variant of Series 5 mAb PR301777; VH SEQ ID NO: 255, VL SEQ ID NO: 312 (antibody, V domains shown)
VH: EVQLVESGGGLVQPGGSLRLSCAASGFTFSNYWMNWVRQAPGKGLEWVGEIRLKSNNYATHYAESVKGRFTISRDDSKNSLYLQMNSLKTEDTAVYYCTVGTLVYWGQGTLVTVSS
VL: DIQLTQSPSSLSASVGDRVTITCRASQSVSTSTYNYMHWFQQKPGKAPKLLIKFASNLESGVPSRFSGSGSGTDFTLTISSLQPEDTATYYCQHSWEIPYTFGQGTKLEIK
modifications: PR302029 VH, PR302031 VH, PR302034 VH; PR302034 VL, PR302041 VL, PR302048 VL, PR302055 VL, PR302069 VL
- IC50 [1, 3]: 10.2 nM
- IC50 ([2]; CHO-CRE-mCRHR2 cells, 5 nM CRH): 29.3 nM

B3: PR302036: humanized variant of Series 5 mAb PR301777; VH SEQ ID NO: 256, VL SEQ ID NO: 310 (antibody, V domains shown)
VH: EMQLVESGGGLVQPGGSLRLSCAASGFTFSNYWMNWVRQAPGKGLEWVAEIRLKSNNYATHYAESVKGRFTISRDDSKSSVYLQMNSLKTEDTAVYYCTVGTLVYWGQGTLVTVSS
VL: DIVLTQSPDSLAVSLGERATINCRASQSVSTSTYNYMHWFQQKPGQPPKLLIKFASNLESGVPDRFSGSGSGTDFTLTISSLQAEDTAVYYCQHSWEIPYTFGQGTKLEIK
modifications: PR302036 VH, PR302038 VH, PR302041 VH; PR302029 VL, PR302036 VL, PR302043 VL, PR302050 VL, PR302064 VL
- IC50 [1, 3]: 2.21 nM
- IC50 ([2]; CHO-CRE-mCRHR2 cells, 5 nM CRH): 5.42 nM

B4: PR302041: humanized variant of Series 5 mAb PR301777; VH SEQ ID NO: 256, VL SEQ ID NO: 312 (antibody, V domains shown)
VH: EMQLVESGGGLVQPGGSLRLSCAASGFTFSNYWMNWVRQAPGKGLEWVAEIRLKSNNYATHYAESVKGRFTISRDDSKSSVYLQMNSLKTEDTAVYYCTVGTLVYWGQGTLVTVSS
VL: DIQLTQSPSSLSASVGDRVTITCRASQSVSTSTYNYMHWFQQKPGKAPKLLIKFASNLESGVPSRFSGSGSGTDFTLTISSLQPEDTATYYCQHSWEIPYTFGQGTKLEIK
modifications: PR302036 VH, PR302038 VH, PR302041 VH; PR302034 VL, PR302041 VL, PR302048 VL, PR302055 VL, PR302069 VL
- IC50 [1, 3]: 4.92 nM
- IC50 ([2]; CHO-CRE-mCRHR2 cells, 5 nM CRH): 12.4 nM

B5: PR302043: humanized variant of Series 5 mAb PR301777; VH SEQ ID NO: 257, VL SEQ ID NO: 310 (antibody, V domains shown)
VH: EVQLVESGGGLVQPGGSLKLSCAASGFTFSNYWMNWVRQASGKGLEWVGEIRLKSNNYATHYAESVKGRFTISRDDSKNTAYLQMNSLKTEDTAVYYCTRGTLVYWGQGTLVTVSS
VL: DIVLTQSPDSLAVSLGERATINCRASQSVSTSTYNYMHWFQQKPGQPPKLLIKFASNLESGVPDRFSGSGSGTDFTLTISSLQAEDTAVYYCQHSWEIPYTFGQGTKLEIK
modifications: PR302043 VH, PR302045 VH, PR302048 VH; PR302029 VL, PR302036 VL, PR302043 VL, PR302050 VL, PR302064 VL
- IC50 [1, 3]: 5.25 nM
- IC50 ([2]; CHO-CRE-mCRHR2 cells, 5 nM CRH): 6.17 nM

B6: PR302048: humanized variant of Series 5 mAb PR301777; VH SEQ ID NO: 257, VL SEQ ID NO: 312 (antibody, V domains shown)
VH: EVQLVESGGGLVQPGGSLKLSCAASGFTFSNYWMNWVRQASGKGLEWVGEIRLKSNNYATHYAESVKGRFTISRDDSKNTAYLQMNSLKTEDTAVYYCTRGTLVYWGQGTLVTVSS
VL: DIQLTQSPSSLSASVGDRVTITCRASQSVSTSTYNYMHWFQQKPGKAPKLLIKFASNLESGVPSRFSGSGSGTDFTLTISSLQPEDTATYYCQHSWEIPYTFGQGTKLEIK
modifications: PR302043 VH, PR302045 VH, PR302048 VH; PR302034 VL, PR302041 VL, PR302048 VL, PR302055 VL, PR302069 VL
- IC50 [1, 3]: 13.9 nM
- IC50 ([2]; CHO-CRE-mCRHR2 cells, 5 nM CRH): 6.32 nM

B7: PR302341-8: humanized variant of Series 10 mAb PR302341; VH SEQ ID NO: 281, VL SEQ ID NO: 340 (antibody, V domains shown)
VH: QVQLVQSGAEVKKPGASVKVSCKASGYTFTDYFMKWVRQAPGQGLEWMGVINPNNGDIFYNQKFKGRVTMTVDKSTSTAYMELSSLRSEDTAVYYCARGTDRALFAYWGQGTLVTVSS
VL: DVVMTQSPLSLPVTLGQPASISCRSGQSIVHSDGNTYLEWYQQRPGQSPRLLIYKVSNRFSGVPDRFSGSGSGTDFTLKISRVEAEDLGVYYCFQGSHIPWTFGGGTKVEIK
modifications: PR302341-10 VH, PR302341-11 VH, PR302341-12 VH, PR302341-14 VH,PR302341-67 VH, PR302341-68 VH, PR302341-69 VH, PR302341-7 VH,PR302341-8 VH, PR302341-9 VH; PR302341-19 VL, PR302341-20 VL, PR302341-21 VL, PR302341-22 VL,PR302341-23 VL, PR302341-28 VL, PR302341-29 VL, PR302341-2 VL,PR302341-41 VL, PR302341-55 VL, PR302341-56 VL, PR302341-57 VL,PR302341-
- IC50 [1, 3]: 0.293 nM
- IC50 ([2]; CHO-CRE-mCRHR2 cells, 5 nM CRH): 0.82 nM

B8: PR302341-10: humanized variant of Series 10 mAb PR302341; VH SEQ ID NO: 281, VL SEQ ID NO: 336 (antibody, V domains shown)
VH: QVQLVQSGAEVKKPGASVKVSCKASGYTFTDYFMKWVRQAPGQGLEWMGVINPNNGDIFYNQKFKGRVTMTVDKSTSTAYMELSSLRSEDTAVYYCARGTDRALFAYWGQGTLVTVSS
VL: DVVMTQTPLSSPVTLGQPASISCRSGQSIVHSDGNTYLEWYQQRPGQPPRLLIYKVSNRFSGVPDRFSGSGAGTDFTLKISRVEAEDLGVYYCFQGSHIPWTFGGGTKVEIK
modifications: PR302341-10 VH, PR302341-11 VH, PR302341-12 VH, PR302341-14 VH,PR302341-67 VH, PR302341-68 VH, PR302341-69 VH, PR302341-7 VH,PR302341-8 VH, PR302341-9 VH; PR302341-10 VL, PR302341-24 VL, PR302341-26 VL, PR302341-43 VL,PR302341-44 VL, PR302341-45 VL, PR302341-4 VL
- IC50 [1, 3]: 0.143 nM
- IC50 ([1]; Table 9, hCRHR2): 0.83 nM
- IC50 ([2]; CHO-CRE-mCRHR2 cells, 5 nM CRH): 1.22 nM
- IC50 ([2]; Table 9, mCrhr2): 1.44 nM

B9: PR302341-19: humanized variant of Series 10 mAb PR302341; VH SEQ ID NO: 282, VL SEQ ID NO: 340 (antibody, V domains shown)
VH: QVQLVQSGAEVKKPGASVKVSCKASGYTFTDYFMKWVRQAPGQGLEWMGVINPNNGDIFYNQKFKGRVTMTRDTSTSTVYMELSSLRSEDTAVYYCARGTDRALFAYWGQGTLVTVSS
VL: DVVMTQSPLSLPVTLGQPASISCRSGQSIVHSDGNTYLEWYQQRPGQSPRLLIYKVSNRFSGVPDRFSGSGSGTDFTLKISRVEAEDLGVYYCFQGSHIPWTFGGGTKVEIK
modifications: PR302341-13 VH, PR302341-19 VH; PR302341-19 VL, PR302341-20 VL, PR302341-21 VL, PR302341-22 VL,PR302341-23 VL, PR302341-28 VL, PR302341-29 VL, PR302341-2 VL,PR302341-41 VL, PR302341-55 VL, PR302341-56 VL, PR302341-57 VL,PR302341-
- IC50 [1, 3]: 0.178 nM
- IC50 ([2]; CHO-CRE-mCRHR2 cells, 5 nM CRH): 0.673 nM
